This note sets out measurements from publication PMC2970552, “Structural Studies of the Tandem Tudor Domains of Fragile X Mental Retardation Related Proteins FXR1 and FXR2” (PLoS ONE, 2010).

Where no end group is shown, it is not given here. Me3 = trimethyl-lysine (Kme3); Me2 = dimethyl-lysine (Kme2)

Broadly, the Kd is the constant that tells how readily two partners part at equilibrium. A high value points to a looser complex.

The target of one experiment is FXR2 Tudor domains (Homo sapiens, UniProt P51116). Put plainly: Fluorescence polarization binding of histone peptides to FXR2 tandem Tudor domains. To be noted: bound printed in mM in the cell, fluoresceinated peptide 100 nM, 20 mM Tris-Cl pH 8.0, 50 mM NaCl, 1 mM DTT, 30 min room temperature. On the technique in general: Fluorescence polarisation rises when a labelled molecule tumbles more slowly, as on binding a larger partner.

Another experiment deals with FXR1 Tudor domains (Homo sapiens, UniProt P51114). Kind of experiment: Fluorescence polarization binding of histone peptides to FXR1 tandem Tudor domains. To be noted: bound printed in mM in the cell, fluoresceinated peptide 100 nM, 20 mM Tris-Cl pH 8.0, 50 mM NaCl, 1 mM DTT, 30 min room temperature.
Experiment [1] deals with T1, FXR1 tandem Tudor domains (amino acids 2 to 132 of Fragile X Mental Retardation Syndrome-related Protein 1) (UniProt P51114 2-132).
T1 construct: Fragile X Mental Retardation Syndrome-related Protein 1 (FXR1), amino acids 2 to 132, tandem Tudor domains; residues 4 to 122 seen in the crystal structure; Cloned in pET-28a-MHL as His6-TEV-FXR1; The methods describe expression in minimal media with selenomethionine; also called FXR1 Tudor domains; NLS of FXR1; source: E. coli BL21 derivative with pRARE, purified (Ni-NTA, Superdex 75); not …
Kind of experiment: fluorescence polarisation; fluoresceinated peptide at 100 nM; FXR1 (stock 1.03 mM) or FXR2 (stock 2.4 mM) in serial twofold dilutions from 1/2 to 1/1024; 20 mM Tris-Cl pH 8.0, 50 mM NaCl, 1 mM DTT; room temperature, 30 minutes. As to conditions: both partners purified.

Experiment [2] deals with T2, FXR2 tandem Tudor domains (amino acids 14 to 137 of Fragile X Mental Retardation Syndrome-related Protein 2) (UniProt P51116 14-137).
T2 construct: Fragile X Mental Retardation Syndrome-related Protein 2 (FXR2), amino acids 14 to 137, tandem Tudor domains; residues 13 to 136 reported for the crystal structure; Cloned in pET-28a-MHL as His6-TEV-FXR2; the purification tag was not removed from FXR2; The methods describe expression in minimal media with selenomethionine; also called FXR2 Tudor domain; NLS of FXR2; source: E. coli BL21 derivative …
Described as above. To be noted: both partners purified.

T2 sequence (P51116 14-137): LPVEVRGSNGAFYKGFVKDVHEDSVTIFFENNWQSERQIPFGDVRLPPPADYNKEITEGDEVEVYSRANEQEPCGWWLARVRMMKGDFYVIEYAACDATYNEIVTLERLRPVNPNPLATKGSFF
T1 sequence (P51114 2-132): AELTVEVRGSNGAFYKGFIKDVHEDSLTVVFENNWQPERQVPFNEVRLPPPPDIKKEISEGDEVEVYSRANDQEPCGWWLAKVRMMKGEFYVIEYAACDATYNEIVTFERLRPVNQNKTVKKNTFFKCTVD

In the case of `C[C@H](N)C(=O)N[C@@H](CCCNC(=N)N)C(=O)N[C@H](C(=O)N[C@@H](CCCC[N+](C)(C)C)C(=O)N[C@@H](CCC(N)=O)C(=O)N[C@H](C(=O)N[C@@H](C)C(=O)N[C@@H](CCCNC(=N)N)C(=O)N[C@@H](CCCCN)C(=O)N[C@@H](CO)C(=O)N[C@H](C(=O)O)[C@@H](C)O)[C@@H](C)O)[C@@H](C)O` [H3K4me3], on FXR2 Tudor domains, the dissociation constant (Kd) is over 1 mM.
Molecule `CC(C)C[C@H](NC(=O)[C@@H](NC(=O)[C@H](CCCCN)NC(=O)[C@H](CCCNC(=N)N)NC(=O)[C@H](Cc1c[nH]cn1)NC(=O)[C@H](CCCNC(=N)N)NC(=O)[C@H](CCCCN)NC(=O)[C@H](C)NC(=O)CNC(=O)CN)C(C)C)C(=O)N[C@@H](CCCNC(=N)N)C(=O)N[C@@H](CC(=O)O)C(=O)N[C@@H](CC(N)=O)C(=O)O` [H4K20] displayed a Kd on FXR1 Tudor domains of over 1 mM.

B1: H3K4me3 peptide (peptide)
peptide: ARTK(Me3)QTARKST
modifications: also: fluorescein, position not given here
notes: histone H3 tail peptide, K4 trimethylated; source: synthetic peptide (Tufts University Core Services)
As for B1, the Kd in experiment [1] was 660 ± 121 µM.

B2: H4K20me3 peptide, fluoresceinated (peptide)
peptide: GGAKRHRK(Me3)VLRD
modifications: also: fluorescein, position not given here
notes: histone H4 tail peptide, K20 trimethylated; source: synthetic peptide (Tufts University Core Services)
B2: the equilibrium dissociation constant (Kd) in experiment [1] came to 692 ± 113 µM; in experiment [2], 448 ± 19 µM.

B3: H4K20 peptide (unmethylated histone H4 peptide) (peptide)
peptide: GGAKRHRKVLRDN
modifications: also: fluorescein, position not given here
notes: histone H4 tail peptide around K20, unmethylated; also called H4K20Me0; source: synthetic peptide (Tufts University Core Services)
For B3, the Kd in experiment [2] stood at 1060 ± 63 µM.

B4: H4K20me2 peptide (peptide)
peptide: GGAKRHRK(Me2)VLRD
notes: histone H4 tail peptide, K20 dimethylated; source: synthetic peptide (Tufts University Core Services)
As to B4, the Kd in experiment [2] is 633 ± 30 µM.
